{"source": "paper PMC12439599", "about": "(RNA (New York, N.Y.), 2025)", "molecules": {"B1": {"name": "human eIF2β-K3 (K-box 3 with surrounding segments) (domain or fragment, UniProt P20042 106-173, looked up)", "chain": "DVQEPTEPEDDLDIMLGNKKKKKKNVKFPDEDEILEKDEALEDEDNKKDDGISFSNQTGPAWAGSERD"}, "B2": {"name": "human 5MP1-CTD (domain or fragment, UniProt Q9Y6E2 248-419, looked up)", "chain": "VQQSLGTRKELQKELQERLSQECPIKEVVLYVKEEMKRNDLPETAVIGLLWTCIMNAVEWNKKEELVAEQALKHLKQYAPLLAVFSSQGQSELILLQKVQEYCYDNIHFMKAFQKIVVLFYKADVLSEEAILKWYKEAHVAKGKSVFLDQMKKFVEWLQNAEEESESEGEEN"}, "B3": {"name": "human eIF2Bε-CTD phosphomimetic mutant (eIF2Bε-CTD-EE) (domain or fragment)", "chain": "GSPQMDDIKVFQNEVLGTLQRGKEENISCDNLVLEINSLKYAYNISLKEVMQVLSHVVLEFPLQQMDSPLDSSRYCALLLPLLKAWSPVFRNYIKRAADHLEALAAIEDFFLEHEALGISMAKVLMAFYQLEILAEETILSWFSQRDTTDKGQQLRKNQQLQRFIQWLKEAEEEEEEDD"}, "B4": {"name": "human 5MP1-CTD phosphomimetic mutant (5MP1-CTD-EE) (domain or fragment)", "chain": "VQQSLGTRKELQKELQERLSQECPIKEVVLYVKEEMKRNDLPETAVIGLLWTCIMNAVEWNKKEELVAEQALKHLKQYAPLLAVFSSQGQSELILLQKVQEYCYDNIHFMKAFQKIVVLFYKADVLSEEAILKWYKEAHVAKGKSVFLDQMKKFVEWLQNAEEEEEEEGEEN"}, "B5": {"name": "human eIF2β-NTT (residues 1–191), His6-tagged (domain or fragment)", "chain": "MSGDEMIFDPTMSKKKKKKKKPFMLDEEGDTQTEETQPSETKEVEPEPTEDKDLEADEEDTRKKDASDDLDDLNFFNQKKKKKKTKKIFDIDEAEEGVKDLKIESDVQEPTEPEDDLDIMLGNKKKKKKNVKFPDEDEILEKDEALEDEDNKKDDGISFSNQTGPAWAGSERDYTYEELLNRVFNIMREKN"}, "B6": {"name": "human eIF5-CTD (residues 232–431) (domain or fragment, UniProt P55010 232-431, looked up)", "chain": "LERTIEERVNILFDFVKKKKEEGVIDSSDKEIVAEAERLDVKAMGPLVLTEVLFNEKIREQIKKYRRHFLRFCHNNKKAQRYLLHGLECVVAMHQAQLISKIPHILKEMYDADLLEEEVIISWSEKASKKYVSKELAKEIRVKAEPFIKWLKEAEEESSGGEEEDEDENIEVVYSKAASVPKVETVKSDNKDDDIDIDAI"}, "B7": {"name": "human eIF2Bε-CTD (domain or fragment, UniProt Q13144 543-721, looked up)", "chain": "GSPQMDDIKVFQNEVLGTLQRGKEENISCDNLVLEINSLKYAYNISLKEVMQVLSHVVLEFPLQQMDSPLDSSRYCALLLPLLKAWSPVFRNYIKRAADHLEALAAIEDFFLEHEALGISMAKVLMAFYQLEILAEETILSWFSQRDTTDKGQQLRKNQQLQRFIQWLKEAEEESSEDD"}}, "key": {"[1]": {"molecular_target": "human eIF5-CTD phosphomimetic mutant (eIF5-CTD-EE) (human) (UniProt P55010)", "experiment": "NMR titration"}, "[2]": {"molecular_target": "T1, S. cerevisiae eIF5-CTD, eIF5 residues 201–405 (S. cerevisiae, UniProt P38431 201-405)", "T1 sequence": "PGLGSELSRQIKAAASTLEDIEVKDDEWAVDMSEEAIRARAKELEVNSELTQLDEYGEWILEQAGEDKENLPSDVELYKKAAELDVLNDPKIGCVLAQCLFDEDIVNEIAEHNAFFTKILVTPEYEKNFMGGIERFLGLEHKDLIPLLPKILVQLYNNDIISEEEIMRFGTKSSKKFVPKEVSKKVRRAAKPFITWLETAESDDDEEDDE", "experiment": "crystal structure"}, "[3]": {"molecular_target": "B7", "experiment": "NMR titration"}, "[4]": {"molecular_target": "B3", "experiment": "NMR titration"}, "[5]": {"molecular_target": "B2", "experiment": "NMR titration"}, "[6]": {"molecular_target": "B6", "experiment": "NMR titration"}, "[7]": {"molecular_target": "B4", "experiment": "NMR titration"}, "[8]": {"molecular_target": "B6", "experiment": "ITC"}, "[9]": {"molecular_target": "B5", "experiment": "NMR titration"}, "[10]": {"molecular_target": "B1", "experiment": "NMR titration"}, "[11]": {"molecular_target": "B6", "experiment": "NMR titration", "remark": "listed apart in the source"}, "[12]": {"molecular_target": "B1", "experiment": "ITC"}, "[13]": {"molecular_target": "B5", "experiment": "ITC"}}, "data": [{"molecule": "human eIF2β-K3 (K-box 3 with surrounding segments) (from UniProt P20042 106-173) (domain or fragment)", "values": [{"measurement": "Kd", "setting": "[1]", "result": 0.3, "unit": "µM"}]}, {"molecule": "human eIF2β-NTT (residues 1–191), His6-tagged (from UniProt P20042 1-191) (domain or fragment)", "values": [{"measurement": "Kd", "setting": "[1]", "result": 2.3, "unit": "µM"}]}, {"molecule": "human eIF2β-K1 (K-box 1 with surrounding segments) (from UniProt P20042 1-45) (domain or fragment)", "values": [{"measurement": "Kd", "setting": "[1]", "result": 0.2, "unit": "µM"}]}, {"molecule": "S. cerevisiae eIF2β residues 39–106 (K-boxes 2 and 3 with flanking regions) (domain or fragment, UniProt P09064 39-106, looked up) GSGDDLFAGLKKKKKKSKSVSADAEAEKEPTDDIAEALGELSLKKKKKKTKDSSVDAFEKELAKAGLD", "values": [{"measurement": "binding result", "setting": "[2]", "result": "binds"}]}, {"molecule": "MSGDEMIFDPTMSKKKKKKKKPFMLDEEGDTQTEETQPSETKEVE (domain or fragment, UniProt P20042 1-45, looked up)", "note": "[human eIF2β-K1 (K-box 1 with surrounding segments)]", "values": [{"measurement": "Kd", "setting": "[3]", "result": "8 ± 1", "unit": "µM"}, {"measurement": "Kd", "setting": "[4]", "result": "4 ± 1", "unit": "µM"}, {"measurement": "Kd", "setting": "[5]", "result": "20 ± 7", "unit": "µM"}, {"measurement": "Kd", "setting": "[6]", "result": "3 ± 1", "unit": "µM"}, {"measurement": "Kd", "setting": "[7]", "result": "11 ± 3", "unit": "µM"}]}, {"molecule": "DTRKKDASDDLDDLNFFNQKKKKKKTKKIFDIDEAEEGVKDLKIES (domain or fragment, UniProt P20042 60-105, looked up)", "note": "[human eIF2β-K2 (K-box 2 with surrounding segments)]", "values": [{"measurement": "Kd", "setting": "[3]", "result": "9 ± 3", "unit": "µM"}, {"measurement": "Kd", "setting": "[4]", "result": "2.3 ± 0.5", "unit": "µM"}, {"measurement": "Kd", "setting": "[5]", "result": "18 ± 3", "unit": "µM"}, {"measurement": "Kd", "setting": "[6]", "result": "6 ± 1", "unit": "µM"}, {"measurement": "Kd", "setting": "[7]", "result": "5.6 ± 0.9", "unit": "µM"}]}, {"molecule": "B1", "values": [{"measurement": "Kd", "setting": "[8]", "result": 4.7, "unit": "µM"}, {"measurement": "Kd", "setting": "[3]", "result": "24 ± 3", "unit": "µM"}, {"measurement": "Kd", "setting": "[5]", "result": "37 ± 5", "unit": "µM"}, {"measurement": "Kd", "setting": "[6]", "result": "4 ± 1", "unit": "µM"}]}, {"molecule": "B2", "values": [{"measurement": "Kd", "setting": "[9]", "result": "63 ± 5", "unit": "µM"}]}, {"molecule": "B3", "values": [{"measurement": "Kd", "setting": "[9]", "result": "14 ± 4", "unit": "µM"}, {"measurement": "Kd", "setting": "[10]", "result": "14 ± 1", "unit": "µM"}]}, {"molecule": "B4", "values": [{"measurement": "Kd", "setting": "[9]", "result": "45 ± 6", "unit": "µM"}, {"measurement": "Kd", "setting": "[10]", "result": "23 ± 3", "unit": "µM"}]}, {"molecule": "B5", "values": [{"measurement": "Kd", "setting": "[8]", "result": 33, "unit": "µM"}, {"measurement": "Kd", "setting": "[11]", "result": "37 ± 6", "unit": "µM"}]}, {"molecule": "B6", "values": [{"measurement": "stoichiometry N", "setting": "[12]", "result": 1}, {"measurement": "stoichiometry N", "setting": "[13]", "result": 3.46}]}, {"molecule": "B7", "values": [{"measurement": "Kd", "setting": "[9]", "result": "44 ± 3", "unit": "µM"}]}]}
